Test results from patent US20070184522A1, “Cell death modulation via antagonists of Fasl and Fas activation” (University of Pittsburgh of the Commonwealth System of …, priority 2004, published 2007).

Target: T1, Fas-Fc (Mus musculus, UniProt P25446)
T1 construct: purchased R&D
T1 sequence (P25446 22-169 limits assumed): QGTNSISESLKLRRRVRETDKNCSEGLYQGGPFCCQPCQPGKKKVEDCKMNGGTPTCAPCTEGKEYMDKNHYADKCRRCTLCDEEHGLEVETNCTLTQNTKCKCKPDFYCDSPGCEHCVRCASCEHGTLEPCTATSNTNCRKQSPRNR
Experiment: ELISA of Fas-Fc binding to coated synthetic polypeptides
Details: peptides coated at 1 μg/ml, increasing Fas-Fc, OD 450 nm
From the text: The Met alpha but not beta chain binds to Fas (FIG. 1a). Various regions of the mouse Met cDNA corresponding to the alpha chain or the extra-cellular portion of the Met beta chain were cloned into expression vectors (pCRT7 TOPO/AlphaMet or pCRT7 TOPO/beta chain) and subjected to in vitro transcription/translation by a rabbit reticolucyte lysate translation system. Empty vector was included in each experiment as a control. The expressed proteins were labeled with ^35S-Methionine. Pull down assays were performed using Fas-Fc, a chimeric molecule which lacks the interacellular cytoplasmic domain and protein-A agarose as described in Wang et al., 2002. FIG. 1b is a schematic presentation of the Met alpha chain and its mutant version used to map the region interacting with Fas. The C-terminus of each construct contains a hexa-Histidine tag for ease of detection. Start cordon ATG was added to the N-terminally truncated constructs. The YLGA (SEQ ID NO:1) motif mutation was prepared by PCR, in which YLGA (SEQ ID NO:1) was replaced by DHER (SEQ ID NO:24). […] In vitro translated ^35S-methionine labeled truncated/mutated AlphaMet proteins were pulled down with 2 μg of Fas-Fc or the same amount of IgG. Lane 1: 10% of AlphaMet input; Lane 2: AlphaMet with IgG control; Lanes 3 to 8: pull down of various truncated AlphaMet proteins; N-terminal 1-106 residues; C-terminal truncated, residues 1-210; alpha chain, residues 1-306; alpha chain with transmembrane domain, 1-338; N-terminally truncated alpha chain, residues 100-306; and N-terminally truncated with addition of the transmembrane domain 100-338, respectively. FIG. 1d depicts the amino acid sequence alignment of alpha chain with FasL, determined using the CLUSTALW, SIM+LALNVIEW, and ALIGN at ExPASy Proteomic Tools (available on the internet at us.expresly.org/tools). The numbers indicate the amino acid residues of the indicated protein. […] Recombinant His-tagged AlphaMet or its mutant version were expressed in E. coli, purified with chromatography, and subjected to Fas-Fc (lanes labeled Fas) or control IgG pull down experiments, and detected by Western blot using anti-His antibody that recognizes C-terminal His. This antibody also recognizes the Fas-Fc which is also tagged at the C-terminus by His. […] Purified recombinant AlphaMet protein (approximately 10 μg) was mixed with Hepa 1-6 cells or Jurkat cell lysates and subjected to immunoprecicitation using anti-Fas antibody or control IgG followed by Western blot using anti His-tag antibody as a probe. […] Peptides (1 μg/ml) were coated into the 96-well microtiter plates in triplicate and after blocking with 1% BSA, increasing amounts of Fas-Fc were added as indicated. The control peptide was a scrambled 13 mer. After washing the wells, anti-human […]-HRP conjugates (1:20,000) were added to detect the bound Fas-Fc using TMD dye and the OD value was determined at a wavelength of 450 nm. One-way ANOVA was carried out for determination of statistical significance.
ELISA. Synthesized polypeptides (Genemed Synthesis, Inc. South San Francisco, Calif.) were dissolved in water and diluted in the coating buffer (0.05M of Sodium Carbonate, 0.02% of Sodium Azide, pH 9.6) to a final concentration of 1 ug/ml. One hundred microliter aliquots were added to coat each well of a 96-well microtitre plate. The coated plates were then washed with PBS-Tween (0.5%) three times. The plates were blotted and dried by tapping upside down on tissue paper. They were blocked using 200 μl of 1% of BSA in PBS solution followed by a 2 hour incubation. Plates were washed another three times, Fas-Fc was added, and the plates were incubated for another 2 hours. The plates were washed three times and anti-human IgM Fc HRP conjugates were included at a final concentration of 1:20,000, and incubated for 1 hour. Plates were washed three times again and ready-to-use TMD was added and incubated for 30 minutes. The color reaction was stopped by 2M of Sulfuric Acid. […]

| Substance | Fas binding by ELISA |
| --- | --- |
| YLGA [YLGA 4 mer] | lower compared to the YLGA 12 mer |
| HHIYLGATNYIY [12 mer] | bound Fas strongly |
